How the values were obtained:
[1] = target: T1, BSA coupled 37-mer Cad-11 peptide encompassing the Cad-11 immunogen (UniProt P55287 54-90, limits assumed, linked to BSA); assay: ELISA on BSA coupled 37-mer peptides, coat 50 ng/ml
T1 construct: domain: 37-mer peptide encompassing the Cad-11 immunogen; also called Cad-11 antigen; Cad-11 peptide immunogen
T1 peptide (looked up): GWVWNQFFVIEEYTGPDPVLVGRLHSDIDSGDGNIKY

[2] = target: T2, recombinant his-tagged human Cad-11 (R&D Systems) (human, UniProt P55287 54-617); assay: SPR, rhCad-11 immobilized, SDP051 as analyte, 2 state reaction model
T2 construct: also called rhCad-11; recombinant human Cad-11; not shown: his tag
T2 sequence: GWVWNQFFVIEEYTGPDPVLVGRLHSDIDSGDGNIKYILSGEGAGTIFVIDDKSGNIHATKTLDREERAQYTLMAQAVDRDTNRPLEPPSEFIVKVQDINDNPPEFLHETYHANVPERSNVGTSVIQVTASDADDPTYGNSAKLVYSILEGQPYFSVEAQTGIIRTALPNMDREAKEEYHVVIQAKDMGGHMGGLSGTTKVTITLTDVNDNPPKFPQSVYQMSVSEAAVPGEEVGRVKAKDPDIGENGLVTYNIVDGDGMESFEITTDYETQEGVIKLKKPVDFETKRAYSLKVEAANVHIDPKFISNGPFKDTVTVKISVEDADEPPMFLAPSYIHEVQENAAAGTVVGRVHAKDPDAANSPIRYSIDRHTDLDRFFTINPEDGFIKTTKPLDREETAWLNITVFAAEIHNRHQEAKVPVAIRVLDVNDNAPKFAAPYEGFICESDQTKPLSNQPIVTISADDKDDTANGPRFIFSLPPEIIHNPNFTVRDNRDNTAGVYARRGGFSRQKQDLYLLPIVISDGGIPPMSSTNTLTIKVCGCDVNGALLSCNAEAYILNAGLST
Description: To determine the affinity of SDP051 for recombinant his-tagged human Cad-11, rhCad-11 (R&D Systems) was immobilized to the chip at a single concentration, high resolution kinetics were determined for SDP051, and a 2-state reaction binding model was successfully fitted to the kinetic data.
Kinetic data were obtained at a flow rate of 40 μL/min to minimize any potential mass transfer effects. An analyte concentration series ranging from 12.5 nM to 0.195 nM was prepared by serial dilution. Two repeats of the blank (no mAb) and the 3.125 nM (first and last cycle) concentration of the analyte were programmed into the kinetic runs in order to check the stability of both the surface and analyte over the kinetic cycles. The SDP051 was injected over the Fcs for 360 seconds, long enough to observe the curvature in association phase.
As rhCad-11 is homodimeric and therefore contained two identical binding epitopes, it is likely that individual mAb molecules become bound sequentially through a first binding site and then both binding sites.

[3] = target: T1, BSA coupled 37-mer Cad-11 peptide …; assay: ELISA, BSA-coupled 37-mer cadherin peptide coated at 500 ng/ml, antibody titrated, A450
Description: Reactibind plates (ThermoScientific) were coated with 500 ng/ml of the BSA coupled cadherin 37-mer peptide (NE peptide) corresponding to Cadherins-7, -8, -9, -11, -18, -20, and -24 in 0.05% Tween (EMD, product code 9480) in PBS (pH 7.2) (Gibco(Invitrogen), #20012) at 100 μl volume/well for overnight at 4° C. The peptide containing solution was removed from the well and the plate blocked with a 2% bovine serum albumin (BSA) in PBS, 200 μl volume/well, for 2 h at 22° C. The plate was then washed twice with 200 μl/well of PBS-Tween 0.05% at 22° C. and blotted dry. A dilution series from 5 μg/ml to 8 ng/ml in a volume of 100 μl/well of each the humanized anti-Cad-11 antibodies were incubated in the peptide coated wells and incubated at 22° C. for 1 hr. Antibody solution was removed from the wells and the plate washed twice with 200 μl/well of 0.05% Tween-PBS at 22° C. and blotted dry. The goat-anti mouse IgG (Pierce # 31432) was added to each well to plate at a 1:1000 dilution, 100 μl/well and incubate at 22° C. for 30 min. The secondary antibody solution was removed and the plate washed twice with 200 μl/well of 0.05% Tween-PBS at 22° C. and blotted dry. The reaction was developed by adding 100 μl/well tetramethylbenzidine (TMB) reagent IgG (Pierce # 34022, 1 step Turbo TMB-ELISA) to plate and developed at 22° C. for 5 min.

[4] = target: T3, Peptide 3 (amino acids V19-Y37 of the human Cad-11 EC1 domain) (human); assay: ELISA on coated peptide or protein, antibody at one dilution, goat anti-mouse IgG, TMB, OD450
T3 construct: also called PEP3; peptide V19-Y37
T3 peptide: VLVGRLHSDIDSGDGNIKY
Description: (§1) To determine the epitope within the Cad-11 EC1 domain that the Peptide 4 Cad-11 EC1 antibodies H1M1 and H14 bind, four different peptides spanning the first 37 amino acids of the EC1 region (see FIG. 22) were immobilized in an ELISA format and the ability of the H1M1 and H14 antibodies to bind each of the four peptides was determined. 96-well Reactibind plates were coated overnight at 4° C. with 0.3 ng/well of Peptide 1 (amino acids G1-P18 of the Cad-11 EC1 domain), 0.3 ng/well of Peptide 2 (amino acids G15-N34 of the Cad-11 EC1 domain), 0.3 ng/well of Peptide 3 (amino acids V19-Y37 of the Cad-11 EC1 domain), 0.3 ng/well of the immunogen Peptide 4 (amino acids G1-G33 of the Cad-11 EC1 domain), 20 ng of a fusion protein including the entire EC1 domain (EFL), or 20 ng of control human Ig (Fc-block). The wells were washed twice with PBS-Tween (0.05%), blocked with casein in dH₂0 for 3 hrs at 22° C. and then washed again twice with PBS-Tween (0.05%). Various dilutions of the different Peptide 4 Cad-11 EC1 domain antibodies were transferred to the peptide- or protein-coated wells, incubated for 45 min at 22° C. and then washed twice with PBS-Tween (0.05%). 100 μl of a 1/1000 dilution of goat anti-mouse IgG secondary antibody (Jackson ImmunoResearch, West Grove, Pa.) were added to each well, incubated for 30 min at 22° C. and then washed twice with PBS-Tween (0.05%). 100 μl/well of room temperature TMB reagent was added to each well and color was allowed to develop for 5 min at 22° C.

[5] = target: T4, Peptide 1 (amino acids G1-P18 of the Cad-11 EC1 domain) (human); assay: as above
T4 construct: Range counted on the EC1 domain; also called PEP1
T4 peptide: GWVWNQFFVIEEYTGPDP
Description: as §1

B1: humanized anti-Cad-11 EC1 antibody SDP051 (Vκ1/VH5) (antibody, IgG4, V domains shown)
VH: EVQLVQSGAEVKKPGASVKVSCKASGYSFTGYFMNWVRQAPGQGLEWIGRINPYTGDTFYNQKFKGRVTITVDKSTSTAYMELSSLRSEDTAVYYCGRLGSRYWYFDVWGQGTTVTVSS
VL: DVLMTQTPLSSPVTLGQPASISCRSSQSIIHSNGNTYLEWYLQKPGQSPQLLIYKVSNRFSGVPDRFTGSGSGTDFTLKISRVEAEDVGVYYCFQGSHVPWTFGQGTKLEIK
notes: humanized IgG4 (S241P), kappa
B1 was tested, and the “binding differential (Cad-11 against Cad-8)” value [1] was > 200 fold, the Kd [2] was 0.379 nM and the “EC50 (read off the curve)” value [3] was ~0.04 µg/mL.

B2: murine H1M1 monoclonal anti-Cad-11 EC1 antibody (hybridoma H1M1, ATCC PTA-9699) (antibody, V domains shown)
VH: EVQLQQSGPELVKPGASVKISCKASGYSFTGYFMNWVKQSHGKSLEWIGRINPYTGDTFYNQKFKGKATLTVDKSSSTAHMELLSLSSEDSAVYYCGRLGSRYWYFDVWGAGTTVTVSS
VL: DVLMTQTPLSLPVSLGDQASISCRSSQSIIHSNGNTYLEWYLQKPGQSPKLLIYKVSNRFSGVPDRFTGSGSGTDFTLKISRVEAEDLGVYYCFQGSHVPWTFGGGTKLEIK
modifications: Biotinylated when used as the labelled competitor in Example 14; the letters are unchanged.
notes: murine antibody raised against Peptide 4; also called SYN0012; SYN0012/H1M1
B2: no binding [4]; no binding [5].
